The values below come from patent US20220073599A1 (Hoffmann-La Roche, published 2022).

For orientation: Kd means the constant that tells how readily two partners part at equilibrium. By koff is commonly meant a measure of how fast the partners let go of each other.

This assay deals with T1, human VEGFA-121-His (human, UniProt P15692 181-395).
T1 construct: Prepared in-house; not shown: His tag
T1 sequence: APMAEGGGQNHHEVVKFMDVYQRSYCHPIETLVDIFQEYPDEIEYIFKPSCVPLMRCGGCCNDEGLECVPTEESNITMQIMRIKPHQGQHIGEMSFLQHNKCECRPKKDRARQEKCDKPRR
The assay is described as follows: SPR, VEGF-A121-His captured by anti-His antibody, Fab injected, single cycle kinetics; marked outside of Biacore specification. Here is the method:
An anti-His capturing antibody (GE Healthcare 28995056) was immobilized to a Series S Sensor Chip C1 (GE Healthcare BR100535) using standard amine coupling chemistry resulting in a surface density of approximately 600 resonance units (RU). As running and dilution buffer, HBS-P+ (10 mM HEPES, 150 mM NaCl pH 7.4, 0.05% Surfactant P20) was used. […] A dilution series of the tested antibody (3.7-300 nM, 1:3 dilution) was successively injected for 60 s each, dissociation was monitored for 3600 s at a flow rate of 30 μl/min (single cycle kinetics). The surface was regenerated by injecting 10 mM Glycine pH 1.5 for 60 s at a flow of 5 μl/min. […] Curve fitting was performed using the 1:1 Langmuir binding model within the Biacore® evaluation software.

B1: bispecific anti-VEGF-A/anti-ANG2 Fab fragment P1AA8906 (Fab, V domains shown)
VH: DFQLVESGGGLVKPGGSLRLSCAASYEFEYDDMSWVRQAPGKGLEWVGSISPKGGSTYYNTKFIGRFTISRDNSKNTLYLQMNSLRAEDTAVYYCARDVGFFDMWGQGTLVTVSS
VL: AIYMHQEPSSLSASVGDRVTITCHGSYWLSNYLAWYQQKPGKAPKLLIFDARWLVHGVPSRFSGSGSHEDYTLTISSLQPEDFATYYCQQYRYHPYTFGHGTKVEIKR
notes: Bispecific Fab with two paratopes in one VH/VL pair (DutaFab); CH1 and Ckappa
As to B1, the Kd worked out at 3 pM and the koff was determined as 4.53e-06 s⁻¹.
